Measurements reported in FireProtDB (doi:10.1110/ps.041111405).

Conditions: Homo sapiens; pH 7; 37 °C; GdnHCl; Fluorescence; Sodium phosphate 10 mM; transition: 3; whole UniProt chain shown

B1: Gamma-crystallin D wild type, P07320 (protein)
chain: MGKITLYEDRGFQGRHYECSSDHPNLQPYLSRCNSARVDSGCWMLYEQPNYSGLQYFLRRGDYADHQQWMGLSDSVRSCRLIPHSGSHRIRLYEREDYRGQMIEFTEDCSCLQDRFRFNEIHSLNVLEGSWVLYELSNYRGRQYLLMPGDYRRYQDWGATNARVGSLRRVIDFS
For B1, the denaturant m value was 3.1 kcal/mol/M, the “denaturant midpoint (higher = more stable)” value was 2.8 M and the unfolding free energy was 8.9 kcal/mol.
